{
  "source": "patent US20070167369A1",
  "about": "“Novel use of isolated polypeptide comprising four FAS-1 domains, EM1 domain and RGD motif” (KYUNGPOOK NATIONAL UNIVERSITY INDUSTRY-ACADEMIC COOPERATION …, priority 2004, published 2007)",
  "molecules": {"B1": {"name": "fas-1 domain: recombinant protein containing the fourth fas-1 domain of human βig-h3 (SEQ ID NO: 64) (protein, listed as Homo sapiens)", "chain": "MGTVMDVLKGDNRFSMLVAAIQSAGLTETLNREGVYTVFAPTNEAFRALPPRERSRLLGDAKELANILKYHIGDEILVSGGIGALVRLKSLQGDKLEVSLKNNVVSVNKEPVAEPDIMATNGVVHVITNVL"}},
  "key": {"HUVECs [1]": {"test_system": "HUVECs", "assay": "Inhibition of βig-h3-mediated endothelial cell adhesion (Example 4-1)", "type": "cell-based, human", "experimental": "HUVECs were suspended in medium at a density of 3×10^5 cells/ml, and 0.1 ml of the cell suspension was added with the fourth fas-1 domain of βig-h3 (βig-h3 D-IV) prepared in Example 1, at concentrations of 5 μM, 10 μM and 20 μM, respectively, and preincubated at 37° C. for 30 minutes. The preincubated cells were added to each well of the 96-well plate precoated with a recombinant βig-h3 His-1-b protein. Then, the cells were tested in the same manner as in Example 2. A control was treated with 2% BSA."}, "HUVECs [2]": {"test_system": "HUVECs", "assay": "Apoptosis by annexin V staining/FACS, endothelial cells (Example 7-1)", "type": "cell-based, human", "settings": "48 hours", "experimental": "(§1) Annexin V is a protein binding to calcium-dependent phospholipid, and known to have a strong affinity for phosphatidylserine such that apoptosis can be assayed. For this reason, the present inventors performed a test using an annexin V staining kit (Santa Cruz Biotechnology Inc.).\n(§2) Each of human umbilical vein endothelial cells (HUVECs) and melanoma cells (B16F10) was suspended in medium at a density of 5×10^5 cells/ml, added to each well of […] and incubated at 37° C. overnight. On the next day, the cells were washed one time with PBS buffer, then added with serum-free medium and incubated at 37° C. for 24 hours. 0.2% FBS-containing fresh medium was treated with the fas-1 domain (βig-h3 D-IV) prepared in Example 1, at various concentrations, then added to each well of the plate and incubated at 37° C. for 48 hours. A negative control was added with PBS, a positive control was incubated with TNF-α or Vitamin C, which are known to induce the apoptosis of endothelial cells and melanoma cells. FITC (fluorescein isothiocyanate)-conjugated annexin V antibodies were added and allowed to react at 4° C. for one hour. After completion of the reaction, unbound annexin V antibodies were removed with PBS buffer, and the apoptosis of the cells was analyzed using FACS (BD Biosciences)."}, "melanoma cells (B16F10) [3]": {"test_system": "melanoma cells (B16F10)", "assay": "Apoptosis by annexin V staining/FACS, melanoma cells (Example 7-1)", "type": "cell-based, murine", "settings": "48 hours", "experimental": "as §1, §2"}, "pc/HEK293 cells": {"test_system": "pc/HEK293 cells", "assay": "Apoptosis by annexin V staining, pc/HEK293 control cells (Example 8)", "type": "cell-based", "settings": "annexin V FACS", "experimental": "A control cell was transfected with a pcDNA3 vector containing no β3 cDNA or β5 cDNA fragment, and named “pc/HEK293”.\npc/HEK293 cells, β3/HEK293 cells and β5/HEK293 cells were stained with annexin V to identify an integrin that mediates the induction of endothelial cell apoptosis by the fas-1 domain. Each of the cells was suspended in medium at a density of 5×10^5 cells/ml, added to each well of 6-well plated and incubated at 37° C. overnight. Following this, a test was performed in the same manner as in Example 7-1 above."}, "melanoma cells (B16F10) [4]": {"test_system": "melanoma cells (B16F10)", "assay": "Proliferation of fas-1-overexpressing melanoma cells, MTT (Example 10-1)", "type": "cell-based, murine", "settings": "fas-1 domain overexpressed (fas-1/B16F10) vs pLNCX/B16F10, 48-72 hours", "experimental": "cDNA (SEQ ID NO: 65) encoding the fourth fas-1 domain of βig-h3 was cloned into the EcoRI/XhoI sites of a pLNCX retrovirus vector (Clontech Lab. Inc., USA). The resulting recombinant retrovirus vector was named “fas-1/pLNCX”. Packaging cell PT67 (Clontech Lab. Inc., USA) were transfected with the fas-1/pLNCX vector using lipofectamine. The transformed cells were incubated at 37° C. for 48 hours. After completion of the incubation, virus particles present in the culture medium were collected, and filtered one time through a 0.45-μm filter. The filtered virus particles were added to a culture medium of melanoma cells (B16F10), and then allowed to react at 37° C. for 6 hours. The culture medium was replaced with fresh medium, and the transfected cells were screened several times in the presence of 1 mg/ml of G418. Western blot analysis using a βig-h3 antibody was performed to confirm that the fas-1 domain is overexpressed in the screened transfected cells. As a result, fas-1-overexpressing melanoma cells (hereinafter, referred to as “fas-1/B16F10”) were prepared. […]\nEach of the fas-1-overexpressing melanoma cells (fas-1/B16F10) and the control cells (pLNCX/B16F10) was suspended in medium at a density of 3×10^4 cells/ml, and 0.1 ml of the cell suspension was added to each well of a 96-well plate. […] Thereafter, the absorbance was measured at 570 nm in a Bio-Rad model 550 microplate reader."}, "[5]": {"test_system": "Melanoma cells B16F10 tumor", "assay": "B16F10 subcutaneous tumor model, tumor growth and CD31 blood vessel count (Example 10-3)", "type": "in vivo, BALB/c nude mouse", "settings": "9 mg/kg or 18 mg/kg into the abdominal cavity one time a day", "experimental": "Melanoma cells B16F10 were suspended in medium at a density of 1×10^7 cells/ml. 0.1 ml of the cell suspension was injected subcutaneously to 5-6 week old BALB/c nude mouse (purchased from Jung-Ang Animal Inc. Ltd., Korea) to make a subcutaneous tumor model. When the volume of the tumor reached about 25 mm^3, mice having similar tumor size were selected and divided into three groups. The fas-1 domain (βig-h3 D-IV) prepared in Example 1 above was injected into the abdominal cavity of the mice of each group at the amount of 9 mg/kg or 18 mg/kg one time a day. A control was injected with saline solution. Thereafter, the body weight and tumor size of the mice were checked at intervals of three days. The diameter of the tumor was measured with slide calipers, and the volume of the tumor was calculated according to the equation 1 above.\nMeanwhile, the tumor was removed after a given time, photographed with a stereoscopic microscope, weighed, and then fixed in 4% paraformaldehyde. The fixed tumor was immersed in 30%, 20% and 10% sucrose solutions one after another for one hour each solution, frozen rapidly with liquid nitrogen spray, and then left to stand at […] for two hours. The frozen tumor was sliced with a tissue microtome (Leica, Germany) to make tissue slides which were then dried at room temperature. Thereafter, the tissue slides were immuno-stained with CD31 (Pharmingen, San Diego, Calif.), an antibody that binds specifically to vascular endothelial cells. The immuno-stained slides were observed under a microscope, and the number of blood vessels from 3-5 LPF (low power fields; x100) was counted and averaged. Each group consisted of 5 or 6 members."}},
  "data": [
    {"molecule": "B1", "values": [
      {"measurement": "inhibition of βig-h3-mediated adhesion of endothelial cells", "setting": "HUVECs [1]; 5 μM", "value": "inhibited"},
      {"measurement": "inhibitory effect of endothelial cell adhesion compared with YH motif-containing peptide fragment of 18 amino acids", "setting": "HUVECs [1]; 20 μM fas-1 domain vs 1,000 μM YH peptide", "value": "higher"},
      {"measurement": "inhibition of βig-h3-mediated adhesion of endothelial cells", "setting": "HUVECs [1]; 5, 10 and 20 μM", "value": "inhibited in a dose-dependent manner"},
      {"measurement": "induction of apoptosis of HUVECs", "setting": "HUVECs [2]", "value": "induced the apoptosis of HUVECs in a dose-dependent manner"},
      {"measurement": "induction of apoptosis of B16F10 cells", "setting": "melanoma cells (B16F10) [3]", "value": "did not induce the apoptosis of B16F10 cells"},
      {"measurement": "induction of apoptosis of pc/HEK293 cells", "setting": "pc/HEK293 cells", "value": "not induced"},
      {"measurement": "effect on proliferation of melanoma cells", "setting": "melanoma cells (B16F10) [4]", "value": "no effect on the proliferation of melanoma cells"},
      {"measurement": "number of blood vessels stained with CD31 antibody in tumor", "setting": "[5]", "value": "significantly smaller than that of the control"},
      {"measurement": "tumor growth rate with time", "setting": "[5]", "value": "much lower than that of the control"},
      {"measurement": "tumor size", "setting": "[5]", "value": "little or no increase in size even at 10 days after tumor induction"}
    ]}
  ]
}
